Laboratory results: article PMC9482650, “Quantitative fragmentomics allow affinity mapping of interactomes” (Nature Communications, 2022)
Residue numbers refer to the chain shown, from its start.

T1: PDZD2_2, O15018
T1 sequence (O15018 329-429, limits assumed, looked up): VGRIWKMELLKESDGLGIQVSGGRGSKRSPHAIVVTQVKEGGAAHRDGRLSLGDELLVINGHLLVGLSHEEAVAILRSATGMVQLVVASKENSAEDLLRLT

T2: GRIP1_4, Q9Y3R0
T2 sequence (Q9Y3R0 467-571, limits assumed, looked up): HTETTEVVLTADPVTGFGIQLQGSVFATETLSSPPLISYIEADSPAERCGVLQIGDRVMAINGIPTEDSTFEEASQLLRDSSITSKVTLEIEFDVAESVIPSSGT

T3: HTRA4, P83105
T3 sequence (P83105 378-476, limits assumed, looked up): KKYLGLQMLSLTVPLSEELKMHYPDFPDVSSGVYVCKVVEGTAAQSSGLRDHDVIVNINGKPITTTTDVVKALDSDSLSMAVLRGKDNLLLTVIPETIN

T4: PDZRN3_1, Q9UPQ7
T4 sequence (Q9UPQ7 244-349, limits assumed, looked up): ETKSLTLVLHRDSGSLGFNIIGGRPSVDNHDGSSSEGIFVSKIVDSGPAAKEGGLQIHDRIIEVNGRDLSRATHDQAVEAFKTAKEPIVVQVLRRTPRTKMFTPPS

T5: ARHGAP21, Q5T5U3
T5 sequence (Q5T5U3 45-169, limits assumed, looked up): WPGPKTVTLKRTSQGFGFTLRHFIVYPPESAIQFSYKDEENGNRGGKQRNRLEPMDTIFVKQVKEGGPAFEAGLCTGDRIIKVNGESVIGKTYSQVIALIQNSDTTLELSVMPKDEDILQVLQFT

T6: SNTG2, Q9NY99
T6 sequence (Q9NY99 68-166, limits assumed, looked up): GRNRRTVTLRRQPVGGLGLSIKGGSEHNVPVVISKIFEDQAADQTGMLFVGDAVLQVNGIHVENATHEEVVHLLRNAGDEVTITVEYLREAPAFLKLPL

T7: LIN7C, Q9NUP9
T7 sequence (Q9NUP9 88-185, limits assumed, looked up): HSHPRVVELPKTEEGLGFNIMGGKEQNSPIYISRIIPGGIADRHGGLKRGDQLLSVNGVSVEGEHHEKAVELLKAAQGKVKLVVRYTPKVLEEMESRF

T8: LIN7B, Q9HAP6
T8 sequence (Q9HAP6 88-185, limits assumed, looked up): T7 sequence (Q9NUP9 88-185, limits assumed, looked up) with S2A, E13D, I35V, I40V, H65Q, K79S, K89R, S96A

T9: APBA2_2, Q99767
T9 sequence (Q99767 654-744, limits assumed, looked up): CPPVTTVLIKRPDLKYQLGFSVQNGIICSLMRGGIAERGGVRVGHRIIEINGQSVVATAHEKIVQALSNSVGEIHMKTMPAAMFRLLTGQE

T10: NHERF3_4, Q5T2W1
T10 sequence (Q5T2W1 373-468, limits assumed, looked up): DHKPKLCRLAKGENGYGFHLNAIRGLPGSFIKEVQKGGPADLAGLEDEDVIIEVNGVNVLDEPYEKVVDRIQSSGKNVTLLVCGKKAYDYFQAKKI

T11: SNTB1, Q13884
T11 sequence (Q13884 107-205, limits assumed, looked up): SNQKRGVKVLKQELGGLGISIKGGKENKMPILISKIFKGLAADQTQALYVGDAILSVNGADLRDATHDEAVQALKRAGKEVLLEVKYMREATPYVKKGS

T12: LNX2_3, Q8N448
T12 sequence (Q8N448 463-564, limits assumed, looked up): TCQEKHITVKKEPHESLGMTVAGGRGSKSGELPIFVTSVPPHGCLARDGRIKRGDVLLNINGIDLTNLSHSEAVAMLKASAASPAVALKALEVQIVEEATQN


biological target: T1, PDZD2_2, O15018; assay: holdup assay; parameters: key: below the threshold = too weak to quantify, mostly under pKd 3.1 to 4; conditions: plain residues with an end cap or a label only (N-terminal biotin on a linker: ado-ado)

| pKd | Binder |
| --- | --- |
| 3.97 | SKENVQETQI [LRRC4B, Q9NT99] |
| 3.5 | EVNETDDTKM [KCNJ1, P48048] |

biological target: T2, GRIP1_4, Q9Y3R0; assay: holdup assay; parameters: key: below the threshold = too weak to quantify, mostly under pKd 3.1 to 4; conditions: plain residues with an end cap or a label only (N-terminal biotin on a linker: ado-ado)

| pKd | Binder |
| --- | --- |
| below the threshold | SKENVQETQI [LRRC4B, Q9NT99] |
| below the threshold | EVNETDDTKM [KCNJ1, P48048] |

biological target: LNX1_3, Q8TBB1; assay: holdup assay; parameters: key: below the threshold = too weak to quantify, mostly under pKd 3.1 to 4; conditions: plain residues with an end cap or a label only (N-terminal biotin on a linker: ado-ado)
Sequence (Q8TBB1 500-596): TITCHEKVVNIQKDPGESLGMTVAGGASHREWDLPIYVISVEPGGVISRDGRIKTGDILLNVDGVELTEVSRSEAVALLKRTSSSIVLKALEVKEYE

| pKd | Binder |
| --- | --- |
| below the threshold | SKENVQETQI [LRRC4B, Q9NT99] |
| below the threshold | EVNETDDTKM [KCNJ1, P48048] |

biological target: LAP2, Q96RT1; assay: holdup assay; parameters: key: below the threshold = too weak to quantify, mostly under pKd 3.1 to 4; conditions: plain residues with an end cap or a label only (N-terminal biotin on a linker: ado-ado)
Sequence (Q96RT1 other isoform, or with tags, fused parts or gaps): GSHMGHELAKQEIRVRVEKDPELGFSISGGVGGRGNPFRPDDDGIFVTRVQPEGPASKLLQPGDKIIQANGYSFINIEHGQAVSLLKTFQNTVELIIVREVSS

| pKd | Binder |
| --- | --- |
| 3.69 | SKENVQETQI [LRRC4B, Q9NT99] |
| 3.5 | EVNETDDTKM [KCNJ1, P48048] |

biological target: DLG4_3, P78352; assay: holdup assay; parameters: key: below the threshold = too weak to quantify, mostly under pKd 3.1 to 4; conditions: plain residues with an end cap or a label only (N-terminal biotin on a linker: ado-ado)
Sequence (P78352 306-403): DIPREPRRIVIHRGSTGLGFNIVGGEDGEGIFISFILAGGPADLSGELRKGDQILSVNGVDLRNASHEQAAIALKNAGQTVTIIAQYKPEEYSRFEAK

| pKd | Binder |
| --- | --- |
| below the threshold | SKENVQETQI [LRRC4B, Q9NT99] |
| below the threshold | EVNETDDTKM [KCNJ1, P48048] |

biological target: T3, HTRA4, P83105; assay: holdup assay; parameters: key: below the threshold = too weak to quantify, mostly under pKd 3.1 to 4; conditions: plain residues with an end cap or a label only (N-terminal biotin on a linker: ado-ado)

| pKd | Binder |
| --- | --- |
| below the threshold | SKENVQETQI [LRRC4B, Q9NT99] |
| 4.14 | EVNETDDTKM [KCNJ1, P48048] |

biological target: T4, PDZRN3_1, Q9UPQ7; assay: holdup assay; parameters: key: below the threshold = too weak to quantify, mostly under pKd 3.1 to 4; conditions: plain residues with an end cap or a label only (N-terminal biotin on a linker: ado-ado)

| pKd | Binder |
| --- | --- |
| 4.19 | SKENVQETQI [LRRC4B, Q9NT99] |
| below the threshold | EVNETDDTKM [KCNJ1, P48048] |

biological target: T5, ARHGAP21, Q5T5U3; assay: holdup assay; parameters: key: below the threshold = too weak to quantify, mostly under pKd 3.1 to 4; conditions: plain residues with an end cap or a label only (N-terminal biotin on a linker: ado-ado)

| pKd | Binder |
| --- | --- |
| below the threshold | SKENVQETQI [LRRC4B, Q9NT99] |
| 3.96 | EVNETDDTKM [KCNJ1, P48048] |

biological target: T6, SNTG2, Q9NY99; assay: holdup assay; parameters: key: below the threshold = too weak to quantify, mostly under pKd 3.1 to 4; conditions: plain residues with an end cap or a label only (N-terminal biotin on a linker: ado-ado)

| pKd | Binder |
| --- | --- |
| 4.81 | SKENVQETQI [LRRC4B, Q9NT99] |
| below the threshold | EVNETDDTKM [KCNJ1, P48048] |

biological target: SCRIB_2, Q14160; assay: holdup assay; parameters: key: below the threshold = too weak to quantify, mostly under pKd 3.1 to 4; conditions: plain residues with an end cap or a label only (N-terminal biotin on a linker: ado-ado)
Sequence (Q14160 857-960): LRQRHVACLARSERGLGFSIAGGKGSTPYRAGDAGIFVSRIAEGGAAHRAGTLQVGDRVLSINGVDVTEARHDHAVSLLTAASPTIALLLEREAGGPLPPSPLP

| pKd | Binder |
| --- | --- |
| 4.27 | SKENVQETQI [LRRC4B, Q9NT99] |
| 3.83 | EVNETDDTKM [KCNJ1, P48048] |

biological target: T7, LIN7C, Q9NUP9; assay: holdup assay; parameters: key: below the threshold = too weak to quantify, mostly under pKd 3.1 to 4; conditions: plain residues with an end cap or a label only (N-terminal biotin on a linker: ado-ado)

| pKd | Binder |
| --- | --- |
| 3.88 | SKENVQETQI [LRRC4B, Q9NT99] |
| below the threshold | EVNETDDTKM [KCNJ1, P48048] |

biological target: FRMPD2_1, Q68DX3; assay: holdup assay; parameters: key: below the threshold = too weak to quantify, mostly under pKd 3.1 to 4; conditions: plain residues with an end cap or a label only (N-terminal biotin on a linker: ado-ado)
Sequence (Q68DX3 770-861): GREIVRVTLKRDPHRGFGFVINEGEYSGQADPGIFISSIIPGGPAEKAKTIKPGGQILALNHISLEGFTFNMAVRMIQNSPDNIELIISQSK

| pKd | Binder |
| --- | --- |
| below the threshold | SKENVQETQI [LRRC4B, Q9NT99] |
| below the threshold | EVNETDDTKM [KCNJ1, P48048] |

biological target: T8, LIN7B, Q9HAP6; assay: holdup assay; parameters: key: below the threshold = too weak to quantify, mostly under pKd 3.1 to 4; conditions: plain residues with an end cap or a label only (N-terminal biotin on a linker: ado-ado)

| pKd | Binder |
| --- | --- |
| 4.13 | SKENVQETQI [LRRC4B, Q9NT99] |
| below the threshold | EVNETDDTKM [KCNJ1, P48048] |

biological target: TJP1_3, Q07157; assay: holdup assay; parameters: key: below the threshold = too weak to quantify, mostly under pKd 3.1 to 4; conditions: plain residues with an end cap or a label only (N-terminal biotin on a linker: ado-ado)
Sequence (Q07157 416-512): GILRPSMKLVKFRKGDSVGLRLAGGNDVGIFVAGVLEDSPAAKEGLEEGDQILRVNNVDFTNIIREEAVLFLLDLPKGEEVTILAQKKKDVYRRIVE

| pKd | Binder |
| --- | --- |
| below the threshold | SKENVQETQI [LRRC4B, Q9NT99] |
| below the threshold | EVNETDDTKM [KCNJ1, P48048] |

biological target: IL16_4, Q14005; assay: holdup assay; parameters: key: below the threshold = too weak to quantify, mostly under pKd 3.1 to 4; conditions: plain residues with an end cap or a label only (N-terminal biotin on a linker: ado-ado)
Sequence (Q14005 1229-1329): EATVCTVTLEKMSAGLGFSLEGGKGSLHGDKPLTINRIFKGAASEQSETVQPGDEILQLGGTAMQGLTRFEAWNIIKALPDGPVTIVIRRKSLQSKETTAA

| pKd | Binder |
| --- | --- |
| below the threshold | SKENVQETQI [LRRC4B, Q9NT99] |
| 3.64 | EVNETDDTKM [KCNJ1, P48048] |

biological target: T9, APBA2_2, Q99767; assay: holdup assay; parameters: key: below the threshold = too weak to quantify, mostly under pKd 3.1 to 4; conditions: plain residues with an end cap or a label only (N-terminal biotin on a linker: ado-ado)

| pKd | Binder |
| --- | --- |
| below the threshold | SKENVQETQI [LRRC4B, Q9NT99] |
| below the threshold | EVNETDDTKM [KCNJ1, P48048] |

biological target: DLG1_3, Q12959; assay: holdup assay; parameters: key: below the threshold = too weak to quantify, mostly under pKd 3.1 to 4; conditions: plain residues with an end cap or a label only (N-terminal biotin on a linker: ado-ado)
Sequence (Q12959 457-571): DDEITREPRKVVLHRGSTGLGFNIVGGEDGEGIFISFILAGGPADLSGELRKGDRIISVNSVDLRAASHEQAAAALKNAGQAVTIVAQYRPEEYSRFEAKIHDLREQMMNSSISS

| pKd | Binder |
| --- | --- |
| 3.77 | SKENVQETQI [LRRC4B, Q9NT99] |
| below the threshold | EVNETDDTKM [KCNJ1, P48048] |

biological target: T10, NHERF3_4, Q5T2W1; assay: holdup assay; parameters: key: below the threshold = too weak to quantify, mostly under pKd 3.1 to 4; conditions: plain residues with an end cap or a label only (N-terminal biotin on a linker: ado-ado)

| pKd | Binder |
| --- | --- |
| below the threshold | SKENVQETQI [LRRC4B, Q9NT99] |
| 3.48 | EVNETDDTKM [KCNJ1, P48048] |

biological target: MAGI2_4, Q86UL8; assay: holdup assay; parameters: key: below the threshold = too weak to quantify, mostly under pKd 3.1 to 4; conditions: plain residues with an end cap or a label only (N-terminal biotin on a linker: ado-ado)
Sequence (Q86UL8 772-865): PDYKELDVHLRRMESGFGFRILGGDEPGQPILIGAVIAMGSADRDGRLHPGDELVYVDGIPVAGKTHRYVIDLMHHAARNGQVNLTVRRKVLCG

| pKd | Binder |
| --- | --- |
| below the threshold | SKENVQETQI [LRRC4B, Q9NT99] |
| 3.63 | EVNETDDTKM [KCNJ1, P48048] |

biological target: T11, SNTB1, Q13884; assay: holdup assay; parameters: key: below the threshold = too weak to quantify, mostly under pKd 3.1 to 4; conditions: plain residues with an end cap or a label only (N-terminal biotin on a linker: ado-ado)

| pKd | Binder |
| --- | --- |
| 5.07 | SKENVQETQI [LRRC4B, Q9NT99] |
| below the threshold | EVNETDDTKM [KCNJ1, P48048] |

biological target: Inadl_6, Q8NI35; assay: holdup assay; parameters: key: below the threshold = too weak to quantify, mostly under pKd 3.1 to 4; conditions: plain residues with an end cap or a label only (N-terminal biotin on a linker: ado-ado)
Sequence (Q8NI35 1058-1167): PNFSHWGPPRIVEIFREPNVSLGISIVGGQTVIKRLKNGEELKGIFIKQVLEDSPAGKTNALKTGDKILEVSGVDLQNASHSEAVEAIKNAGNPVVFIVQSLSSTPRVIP

| pKd | Binder |
| --- | --- |
| 3.71 | SKENVQETQI [LRRC4B, Q9NT99] |
| 3.54 | EVNETDDTKM [KCNJ1, P48048] |

biological target: DLG1_2, Q12959; assay: holdup assay; parameters: key: below the threshold = too weak to quantify, mostly under pKd 3.1 to 4; conditions: plain residues with an end cap or a label only (N-terminal biotin on a linker: ado-ado)
Sequence (Q12959 314-412): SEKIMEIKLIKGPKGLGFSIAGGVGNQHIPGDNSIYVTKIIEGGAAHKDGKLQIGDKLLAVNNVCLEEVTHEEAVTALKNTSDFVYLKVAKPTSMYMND

| pKd | Binder |
| --- | --- |
| 4.64 | SKENVQETQI [LRRC4B, Q9NT99] |
| below the threshold | EVNETDDTKM [KCNJ1, P48048] |

biological target: LNX1_2, Q8TBB1; assay: holdup assay; parameters: key: below the threshold = too weak to quantify, mostly under pKd 3.1 to 4; conditions: plain residues with an end cap or a label only (N-terminal biotin on a linker: ado-ado)
Sequence (Q8TBB1 371-470): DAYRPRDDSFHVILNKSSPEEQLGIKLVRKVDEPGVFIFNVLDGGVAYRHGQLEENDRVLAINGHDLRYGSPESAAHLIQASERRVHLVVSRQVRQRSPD

| pKd | Binder |
| --- | --- |
| below the threshold | SKENVQETQI [LRRC4B, Q9NT99] |
| below the threshold | EVNETDDTKM [KCNJ1, P48048] |

biological target: T12, LNX2_3, Q8N448; assay: holdup assay; parameters: key: below the threshold = too weak to quantify, mostly under pKd 3.1 to 4; conditions: plain residues with an end cap or a label only (N-terminal biotin on a linker: ado-ado)

| pKd | Binder |
| --- | --- |
| below the threshold | SKENVQETQI [LRRC4B, Q9NT99] |
| below the threshold | EVNETDDTKM [KCNJ1, P48048] |

biological target: Inadl_3, Q8NI35; assay: holdup assay; parameters: key: below the threshold = too weak to quantify, mostly under pKd 3.1 to 4; conditions: plain residues with an end cap or a label only (N-terminal biotin on a linker: ado-ado)
Sequence (Q8NI35 359-469): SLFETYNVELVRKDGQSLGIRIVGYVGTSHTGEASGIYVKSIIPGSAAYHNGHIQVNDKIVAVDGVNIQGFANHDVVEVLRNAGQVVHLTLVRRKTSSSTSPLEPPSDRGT

| pKd | Binder |
| --- | --- |
| below the threshold | SKENVQETQI [LRRC4B, Q9NT99] |
| below the threshold | EVNETDDTKM [KCNJ1, P48048] |
